PMC9600267, “The Antibacterial Type VII Secretion System of Bacillus subtilis: Structure and Interactions of the Pseudokinase YukC/EssB” (mBio, 2022)

Target: the molecule itself
Experiment: crystal structure; hanging-drop vapor diffusion at 4°C; 20 mg/mL YukC413 in 25 mM HEPES pH 8, 175 mM NaCl, 0.04% Cymal-6 with 0.1 M MgCl2, 50 mM HEPES pH 7.5, 15% PEG 2000; molecular replacement

B1: YukC413 (YukC lacking the last 38 residues), Strep-tagged (pRSF/yukC413.strep) (domain or fragment, Bacillus subtilis 168, UniProt P71070 1-413, looked up)
chain: MSGEQKSYLENQLEAVAEKTDAGYTFTFQREKIKLLDGLEANVIKDINPFFHKEIDVTDDEVIITIQPPSSYKAFRFMKAKDKKSKWQFAYQLVQAVQQHNLSRLNLIVAPENIVFDKGLTPYFLHYGVKESIPPYERDEERVWQELKAAAALAVDGAFAFEDYLKFNETLTFSAEAKAILDAESYDDLLELIQTHIDELEAKAKTYIHIPRKKWNIQRYIGLGLIVLLVPALIYSMYALFFAQPKHQAIVDSNRAFLNKQYSEVISTLSKYDAESLPESVQYQLATSYVEVENLGSAKTKNIENNLVTLQSDPQHFLYWIDYGRGEYKEAISIGRKLEYNDYIYFALAKYKQQLLSEDTNDEDIQKELDSVNSELEKAQKERQENKQSNSETSLVDTSEEQTQTDEEKQAEE
notes: YukC (EssB) of Bacillus subtilis 168 lacking the last 38 residues at the C terminus; In the model 384 (chain A) and 377 (chain B) residues are assigned; source: E. coli BL21(DE3); purified from Cymal-6-solubilized membranes (StrepTrap, Superdex 200) for crystallization; coexpressed with YukE.his and solubilized with Triton X-100 for copurification
  binding result: binds
